Test results taken from paper PMC7591906, “pHLIP ICG for delineation of tumors and blood flow during fluorescence-guided surgery” (Scientific Reports, 2020).
Peptide text beside a SMILES is read from it. * marks the point of attachment. X1 = CC1(C)C(/C=C/C=C/C=C/C=C2/N(CCCCCC(=O)NCCN3C(=O)CC(*)C3=O)c3ccc4ccccc4c3C2(C)C)=[N+](CCCCS(=O)(=O)[O-])c2ccc3ccccc3c21

Assays:
[1] = Stability of pHLIP ICG formulations in solution (analytical HPLC); assay type: physicochemical; conditions: protected from light
Procedure: Stability studies were performed with pHLIP ICG formulations in PBS and PBS containing 5% DMSO or 5% Ethanol (vol/vol). The tumor targeting capability in mice is independent of formulation. Formulation of pHLIP ICG in PBS/5% Ethanol was used in PoC animal studies, and in toxicity studies on mice, rats and dogs. For the PBS/5%DMSO formulation 1 mg of the lyophilized powder of pHLIP ICG was dissolved in 75 µl of DMSO (to make 3.2 mM solution), then 10 µl of 3.2 mM stock was mixed with 190 µl PBS to make a 0.16 mM solution of pHLIP ICG (5% DMSO). For the PBS/5%Ethanol formulation, the lyophilized powder of pHLIP ICG was dissolved at a concentration of 1.6 mg/ml in PBS/5% Ethanol solution. Finally, the formulation selected for human use was prepared by dissolving the lyophilized powder of pHLIP ICG at a concentration of 0.8 mg/ml in PBS. All formulations were kept at room temperature and protected from light. The aliquots were taken at 0.5 or 1, 3, 6, 24, 48 and 72 hours (102 hrs for pHLIP ICG dissolved in PBS) for analytical HPLC analysis using a Zorbax SB-C18 column (4.6 x 250 mm, 5 µm) with a binary solvent system using a […] water and acetonitrile gradient with 0.05% TFA over 25 min. […] Formulation of pHLIP ICG in PBS was stable in solution for 4 days kept at RT.

[2] = Kinetics of insertion into POPC liposomes (stopped-flow tryptophan fluorescence); assay type: physicochemical; conditions: pH drop from pH 8 to pH 5, Trp fluorescence, bi-exponential fit, about 15% of final adjustment
Procedure: POPC (1-palmitoyl-2-oleoyl-sn-glycero-3-phosphocholine, Avanti Polar Lipids, Inc.) liposomes were used in biophysical measurements to mimic cell membranes and investigate the pHLIP ICG interactions with lipid bilayers. Large unilamellar vesicles (LUVs) were prepared by extrusion. POPC dissolved in chloroform was desolvated in a rotary evaporator and placed under high vacuum for 2 hours to create a phospholipid film. Lipids were then rehydrated in phosphate buffer (pH8) and repeatedly extruded through membranes with a pore size of 100 nm to make LUVs.
To follow pHLIP ICG insertion into the lipid bilayer of POPC liposomes in real-time, kinetics measurements were performed using a SFM-300 mixing system (Bio-Logic Science Instruments) in combination with a MOS-450 spectrometer with its temperature control set to 25.0°C. pHLIP ICG pre-mixed with POPC liposomes in phosphate buffer at pH8 were mixed (5 ms dead time) with acid to drop the pH from pH8 to pH5 and promote pHLIP peptide insertion into the bilayers. The insertion process was monitored by recording changes of the tryptophan fluorescence of pHLIP peptide excited at 295 nm and using a cut off filter at 320 nm.

[3] = Pharmacokinetics in mice, single i.v. injection; assay type: in vivo, B6D2F1 mice; conditions: single i.v. 12.3 mg/kg
Procedure: The purpose of this study, performed at MSK, was to determine the pharmacokinetic parameters of pHLIP ICG in 3 female B6D2F1 mice following a single i.v. injection of pHLIP ICG at a dose of 12.3 mg/kg. Blood was collected in EDTA tubes at 5, 15, 30 minutes, and 1, 2, 4, 6, 8, 16, and 24 hours post-injection, followed by centrifugation to separate the plasma, and flash frozen. At time of analysis, samples were thawed, extracted, and analyzed via LC-MS as per the validated protocol using pHLIPIS.

[4] = Pharmacokinetics in Beagle dogs, single i.v. bolus injection; assay type: in vivo; conditions: male, dog, plasma, iv, mean
Procedure: The objective of this study performed at CRL was to characterize the pharmacokinetic profile of pHLIP ICG in Beagle dogs following a single i.v. injection.
Blood samples were collected at 5, 15, and 30 minutes, and 1, 2, 4, 6, 8, 12, 24, and 48 hours post-dose for pharmacokinetic evaluation. Samples were placed on crushed wet ice until centrifugation, which was carried out immediately. The samples were centrifuged as per standard procedures. An aliquot of 250 µL of the resultant plasma was separated, transferred to 2.0 mL low-bind tubes containing 1.25 mL of methanol, mixed and frozen immediately over dry ice and transferred to a freezer at -80°C. At the time of analysis, samples were thawed, extracted, and analyzed via LC-MS/MS according to the validated protocol using pHLIPIS.

4T1 tumor = experiment: Biodistribution and kinetics, ex vivo fluorescence imaging of organs; assay type: in vivo, BALB/c mice; conditions: post-administration, decay after 6 h
Procedure: BALB/cAcNHsd mice ranging in age from 5 to 6 weeks obtained from Envigo RMS, Inc. were used in the study. Mouse mammary 4T1 cancer cells were subcutaneously implanted in the right flank (8 x 10^5 cells/0.1 mL/flank) of adult female or male mice. The triple-negative 4T1 tumor model closely mimics stage IV of human breast cancer. When tumors reached […] in diameter, single tail vein injections of 0.5 mg/kg of pHLIP ICG in sterile PBS, or PBS with 5% DMSO or 5% Ethanol (vol:vol) (volume of the injection was 100 μl) were performed. Animals were euthanized 5 min, 1, 2, 4, 6, 16, 26 and 48 hrs after pHLIP ICG administration. Several animals were used for each time point plus seven control animals (no pHLIP ICG administration). Tumor, muscles, skin, heart, lungs, liver, spleen, kidneys, brain, pancreas, bone, stomach, small and large intestines were collected, and imaged immediately after necropsy. […] The background signal was determined by introducing an intensity threshold. All the pixels with intensity above the set threshold were counted and the average intensity per pixel was calculated. For organs for which the highest illumination light intensity produced a saturated image, the medium illumination light intensity images were analyzed, then converted to a comparison using experimentally established conversion curves.

In the case of `CC(C)C[C@H](NC(=O)[C@H](Cc1ccc(O)cc1)NC(=O)[C@H](C)NC(=O)[C@H](CCCNC(=N)N)NC(=O)[C@H](Cc1c[nH]c2ccccc12)NC(=O)[C@@H]1CCCN1C(=O)[C@H](CC(N)=O)NC(=O)[C@H](CCC(N)=O)NC(=O)[C@H](CC(=O)O)NC(=O)[C@H](CC(=O)O)NC(=O)[C@H](CSC1CC(=O)N(CCNC(=O)CCCCCN2/C(=C/C=C/C=C/C=C/C3=[N+](CCCCS(=O)(=O)[O-])c4ccc5ccccc5c4C3(C)C)C(C)(C)c3c2ccc2ccccc32)C1=O)NC(=O)[C@H](C)N)C(=O)N[C@@H](CC(=O)O)C(=O)N[C@@H](CC(C)C)C(=O)N[C@@H](CC(C)C)C(=O)N[C@@H](Cc1ccccc1)C(=O)N1CCC[C@H]1C(=O)N[C@H](C(=O)N[C@@H](CC(=O)O)C(=O)N[C@H](C(=O)N[C@@H](CC(C)C)C(=O)N[C@@H](CC(C)C)C(=O)N[C@@H](CC(C)C)C(=O)N[C@@H](CC(=O)O)C(=O)N[C@@H](CC(C)C)C(=O)N[C@@H](CC(C)C)C(=O)N[C@@H](Cc1c[nH]c2ccccc12)C(=O)N[C@@H](C)C(=O)O)[C@@H](C)O)[C@@H](C)O` (some centres unmarked) [pHLIP ICG] (H-AC(X1)DDQNPWRAYLDLLFPTDTLLLDLLWA-OH), the “Stability (purity) of all formulations” value ([1]; PBS, PBS/5% DMSO, PBS/5% Ethanol, up to 72 hours at room temperature, analytical HPLC) is reported as over 95%, the “Time stable in solution” value ([1]; reconstituted in PBS (0.8 mg/ml), room temperature, analytical HPLC Zorbax SB-C18) is reported as 4 days and the “Rate of insertion into lipid bilayer, slow component” value [2] is reported as 0.077 s⁻¹. The clearance ([3]; female, B6D2F1, mouse, plasma, iv, mean, read-out: Clearance (Cl) (converted)) was 0.159 mL/min/kg, the half-life ([3]; female, B6D2F1, mouse, plasma, iv, mean, read-out: Elimination half-time (T1/2) (converted)) was 3.9 h and the Vd ([3]; female, B6D2F1, mouse, plasma, iv, mean, read-out: Volume of distribution (Vz)) was 0.0535 L/kg. The “Systemic exposure quantifiable up to” value ([3]; LC-MS) was “up to 16 hours”, the clearance ([4]; single i.v. 0.064 mg/kg, read-out: Clearance (Cl) (converted)) was 0.193 mL/min/kg and the half-life ([4]; single i.v. 0.064 mg/kg, read-out: Elimination half-time (T1/2) (converted)) was 3.7 h. The Vd ([4]; single i.v. 0.064 mg/kg, read-out: Volume of distribution (Vz)) was 0.0616 L/kg, the AUC(0-inf) ([4]; single i.v. bolus 0.064 mg/kg) was 5550 ng·h/mL and the C0 ([4]; single i.v. bolus 0.064 mg/kg, 3 males, read-out: C0 (theoretical concentration at time zero)) was 1410 ng/mL. For the same compound, the AUC(0-t) ([4]; single i.v. bolus 0.064 mg/kg, read-out: AUC0-48hr) was 5450 ng·h/mL and the “Time of maximum signal in the liver” value (4T1 tumor) was 1 h.
